Several values for one entry are separate records, joined by “and”; a condition that tells them apart may be missing. Identical values can stand only once.
Key:
[1] = system: human MDA-MB-468 breast adenocarcinoma tumor xenografts; assay: MDA-MB-468 xenograft efficacy in NOD/SCID mice (Example 3); format: in vivo, mouse; conditions: single dose on Day 0; for T/C (%) / TGI (%): Day 42
Experimental: The efficacies of two anti-TROP2-MMAE antibody drug conjugates, DP002-HC1LC5-ADC (DAR ˜2) and DP002-HC4LC5-ADC (DAR ˜1.6-2.3), in inhibiting tumor growth in mice bearing human MDA-MB-468 breast adenocarcinoma tumor xenografts were tested. DP002-HC1LC5-ADC comprises an anti-TROP antibody that comprises HC 1 (SEQ ID NO: 52) and LC5 (SEQ ID NO: 62); DP002-HC4LC5-ADC comprises an anti-TROP antibody that comprises HC 4 (SEQ ID NO: 44) and LC5 (SEQ ID NO: 62). Briefly, 48 NOD/SCID mice (female, 6-8 weeks of age) were implanted with 0.1 ml MDA-MB-468 cells (lx 10^7 cell/ml). When the tumors sizes reached above 181 mm^3 (34 days after tumor inoculation), the mice were sorted randomly into 7 groups (6 mice/group) and treated according to the schedule provided in Table 10 below: […]

[2] = system: xenografted MDA-MB-468 human breast adenocarcinoma tumors; assay: MDA-MB-468 xenograft efficacy in female nude mice (Example 4); format: in vivo, mouse
Experimental: The anti-tumor activity of DP002-HC4LC5-ADC was evaluated as a single agent in female nude mice bearing xenografted MDA-MB-468 human breast adenocarcinoma tumors.
Each mouse was inoculated with 5×10^6 MDA-MB-468 tumor cells (in 0.1 mL, 1:1 with Matrigel) at the right flank by subcutaneous administration under sterile conditions. When the tumors reached a volume of ˜150 mm^3, mice were randomized into one of 7 treatment groups (6 mice per group), as outlined in Table 12, and treatments began. All doses of DP002-HC4LC5-ADC were administered by intravenous injection via tail vein injection.
Tumor size and animal body weight were measured twice per week. Clinical signs were recorded daily. Tumors were measured using a caliper in two dimensions (i.e., length (a) and width (b)), and tumor volumes were estimated from measurements of the two diameters of the individual tumors as follows: Tumor Volume (mm^3)=(a×b^2)/2.
Average tumor growth curves for each treatment group were plotted with the observation time on the X-axis, and corresponding tumor volume (geometric mean) on the Y-axis. A two-tailed t-test was used to analyze the statistical significance of any differences between the treatment groups and the control group. Tumor Growth Inhibition (TGI) was calculated after each tumor volume measurement according to the formula: % TGI=(TVcn−TVtn)/TVcn×100, where TVtn and TVcn are the mean tumor Volume of treated and control groups, respectively. Body weight change (CBW %) was calculated after each body weight measurement according to the formula: CBW %=(BWn−BW0)/BW0×100, where BWn is the body weight at day n and BW0 is the body weight at day 0 respectively.

[3] = 1 mg/kg IV Days 0, 7, 14, 21, n = 6
[4] = 1 mg/kg IV once on Day 0, n = 6 unless specified
[5] = 2 mg/kg IV Day 0 + 1 mg/kg IV Days 7, 14
[6] = 2 mg/kg IV Day 0 + 1 mg/kg IV Days 7, 14, n = 6 unless specified
[7] = 2 mg/kg IV once on Day 0, n = 6 unless specified

B1: DP002-HC4LC5-ADC: anti-TROP2-MMAE antibody drug conjugate (DAR ~1.6-2.3) of antibody with HC4 and LC5 (SEQ ID NO: 62) (conjugate)
VH: EVQLVQSGAEVKKPGESLKISCKGSGYTFTDYSINWVRQMPGKGLEWMGVISTYYGDASYNQKFKGQVTISADKSISTAYLQWSSLKASDTAMYYCARYGDGYNQFDYWGQGTLVTVSS
light: DIQMTQSPSSLSASVGDRVTITCRVSESVDSYGNNFMHWYQQKPGKAPKLLIYRASNLESGVPSRFSGSGSGTDFTFTISSLQPEDIATYYCQQSYEDPYTFGGGTKLEIKRTVAAPSVFIFPPSDEQLKSGTASVVCLLNNFYPREAKVQWKVDNALQSGNSQESVTEQDSKDSTYSLSSTLTLSKADYEKHKVYACEVTHQGLSSPVTKSFNRGEC
modifications: MMAE conjugate
[1]; 1 mg/kg intravenous
  Tumor Size (mm^3) at Day 42, mean ± SEM: 620 ± 61 mm^3
  T/C (%): 82%
  TGI (%): 18%
[1]; 4 mg/kg intravenous
  Tumor Size (mm^3) at Day 42, mean ± SEM: 4 ± 2 mm^3
  average tumor volume on Day 56: 3 mm^3
  T/C (%): 0%
  TGI (%): 100%
[2]; 1 mg/kg IV Days 0, 7, 14, 21
  % TGI Day 70: 85.88%
  % of mice with tumor regression at the end of the study: 30%
  Tumor Volume (mm^3, Mean ± SEM) Day 70: 191.51 mm^3 and 192.51 ± 91.38*** mm^3
  Tumor Weight (g, Mean ± SEM) Day 84: 0.421 ± 0.218 g
[2]; [3]
  Number of mice demonstrating full tumor regression at Week 4 following first dose: 1
  Number of mice demonstrating full tumor regression at Week 5 following first dose: 1
  Number of mice demonstrating full tumor regression at Week 6 following first dose: 1
  Number of mice demonstrating full tumor regression at Week 7 following first dose: 2
  Number of mice demonstrating full tumor regression at Week 8 following first dose: 2
  Number of mice demonstrating full tumor regression at Week 9 following first dose: 2
  Number of mice demonstrating full tumor regression at Week 10 following first dose: 2
  Number of mice demonstrating full tumor regression at Week 11 following first dose: 2/6 and 2
  Number of mice demonstrating full tumor regression at Week 12 following first dose: 2
[2]; 1 mg/kg IV once on Day 0
  % TGI Day 70: 62.16%
  Tumor Volume (mm^3, Mean ± SEM) Day 70: 515.77 mm^3 and 515.77 ± 127.38*** mm^3
  Tumor Weight (g, Mean ± SEM) Day 84: 0.658 ± 0.165 g
[2]; 1 mg/kg IV once on Day 0, animals euthanized Day 77
  Tumor Weight (g, Mean ± SEM) Day 77: 0.972 ± 0.165 g
[2]; [4]
  Number of mice demonstrating full tumor regression at Week 4 following first dose: 0
  Number of mice demonstrating full tumor regression at Week 5 following first dose: 0
  Number of mice demonstrating full tumor regression at Week 6 following first dose: 0
  Number of mice demonstrating full tumor regression at Week 7 following first dose: 0
  Number of mice demonstrating full tumor regression at Week 8 following first dose: 0
  Number of mice demonstrating full tumor regression at Week 9 following first dose: 0
  Number of mice demonstrating full tumor regression at Week 10 following first dose: 0
  Number of mice demonstrating full tumor regression at Week 11 following first dose: 0
  Number of mice demonstrating full tumor regression at Week 12 following first dose: 0 (n = 4)
[2]; [5]
  % TGI Day 70: 87.61%
  % of mice with tumor regression at the end of the study: 100%
  Tumor Volume (mm^3, Mean ± SEM) Day 70: 168.94 mm^3 and 168.94 ± 168.94*** mm^3
  Tumor Weight (g, Mean ± SEM) Day 84: 0.000 ± 0.000 g
[2]; 2 mg/kg IV Day 0 + 1 mg/kg IV Days 7, 14, animal euthanized Day 77
  Tumor Weight (g, Mean ± SEM) Day 77: 0.749 g
[2]; [6]
  Number of mice demonstrating full tumor regression at Week 4 following first dose: 5
  Number of mice demonstrating full tumor regression at Week 5 following first dose: 5
  Number of mice demonstrating full tumor regression at Week 6 following first dose: 5
  Number of mice demonstrating full tumor regression at Week 7 following first dose: 5
  Number of mice demonstrating full tumor regression at Week 8 following first dose: 5
  Number of mice demonstrating full tumor regression at Week 9 following first dose: 5
  Number of mice demonstrating full tumor regression at Week 10 following first dose: 5
  Number of mice demonstrating full tumor regression at Week 11 following first dose: 5/6 and 5
  Number of mice demonstrating full tumor regression at Week 12 following first dose: 5 (n = 5)
[2]; 2 mg/kg IV once on Day 0
  % TGI Day 70: 89.74%
  % of mice with tumor regression at the end of the study: 20%
  Tumor Volume (mm^3, Mean ± SEM) Day 70: 139.85 mm^3 and 139.85 ± 99.80*** mm^3
  Tumor Weight (g, Mean ± SEM) Day 84: 0.089 ± 0.048 g
[2]; 2 mg/kg IV once on Day 0, animal euthanized Day 77
  Tumor Weight (g, Mean ± SEM) Day 77: 1.004 g
[2]; [7]
  Number of mice demonstrating full tumor regression at Week 4 following first dose: 2
  Number of mice demonstrating full tumor regression at Week 5 following first dose: 2
  Number of mice demonstrating full tumor regression at Week 6 following first dose: 2
  Number of mice demonstrating full tumor regression at Week 7 following first dose: 2
